Laboratory results taken from patent publication US12528864 (GlaxoSmithKline, dated 2026).
Residue numbers refer to the chain shown, from its start.

T1: human CD96v2 expressed on cells (CHO cells; transiently transfected HEK cells) (human, UniProt P40200-2 22-569)
T1 construct: whole, on cells; the cell is named under assay; also called CHO-huCD96; hCD96v2
T1 sequence (looked up): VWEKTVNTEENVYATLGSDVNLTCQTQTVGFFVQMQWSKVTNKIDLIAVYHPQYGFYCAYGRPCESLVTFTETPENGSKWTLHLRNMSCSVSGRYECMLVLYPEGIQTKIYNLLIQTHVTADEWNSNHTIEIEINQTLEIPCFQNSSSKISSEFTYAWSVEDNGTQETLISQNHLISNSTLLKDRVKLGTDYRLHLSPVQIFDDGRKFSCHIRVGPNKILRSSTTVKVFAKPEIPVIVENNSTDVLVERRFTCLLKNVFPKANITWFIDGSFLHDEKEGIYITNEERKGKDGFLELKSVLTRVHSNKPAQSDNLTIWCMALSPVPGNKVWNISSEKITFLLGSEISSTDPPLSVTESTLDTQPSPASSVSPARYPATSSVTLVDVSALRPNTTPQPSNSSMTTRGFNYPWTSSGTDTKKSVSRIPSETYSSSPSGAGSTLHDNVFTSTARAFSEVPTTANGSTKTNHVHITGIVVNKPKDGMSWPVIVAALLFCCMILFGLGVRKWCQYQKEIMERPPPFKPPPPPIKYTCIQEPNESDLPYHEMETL

T2: cynomolgus monkey CD96v2 expressed on cells (CHO cells; transiently transfected HEK cells) (cynomolgus monkey, UniProt A0A2K5TWV6 22-569)
T2 construct: the cell is named under assay; also called CHO-cyCD96; Cyno CD96v2
T2 sequence: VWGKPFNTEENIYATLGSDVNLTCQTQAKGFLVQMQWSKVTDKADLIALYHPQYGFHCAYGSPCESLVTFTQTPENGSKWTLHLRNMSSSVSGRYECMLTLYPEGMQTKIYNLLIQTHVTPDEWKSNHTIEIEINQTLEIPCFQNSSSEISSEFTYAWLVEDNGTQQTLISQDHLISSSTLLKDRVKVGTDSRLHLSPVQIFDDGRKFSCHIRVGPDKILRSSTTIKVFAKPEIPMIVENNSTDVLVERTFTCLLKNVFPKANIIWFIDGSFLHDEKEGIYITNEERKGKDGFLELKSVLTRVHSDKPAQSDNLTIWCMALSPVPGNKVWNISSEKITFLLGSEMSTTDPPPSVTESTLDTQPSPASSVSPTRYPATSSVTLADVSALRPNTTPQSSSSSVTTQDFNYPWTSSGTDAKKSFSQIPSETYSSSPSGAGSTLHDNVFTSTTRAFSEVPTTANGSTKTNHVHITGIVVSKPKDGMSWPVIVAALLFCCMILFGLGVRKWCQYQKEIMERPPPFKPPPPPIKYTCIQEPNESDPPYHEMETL

B1: 42Y073-2B04-46 (antibody, V domains shown)
VH: QVQLQQWGAGLLKPSETLSLTCAVYGGSFRRYYWSWIRQPPGKGLEWIGEIDGWGSTNYNPSLKSRVTISVDTSKNQFSLKLSSVTAADTAVYYCARGGSVDFWSGSDYYYYMDVWGKGATVTVSS
VL: EIVLTQSPATLSLSPGERATLSCRASQSVSSYLAWYQQKPGQAPRLLIYDASKRATGIPARFSGSGSGTDFTLTISSLEPEDFAVYYCQQLDNWPITFGGGTKVEIK
notes: Fully human antibody; also called 42Y073-2804-46
B2: 42Y073-86F08-16 (antibody)
heavy: not shown
light: DIQLTQSPSSLSASVGDRVTITCRASQSISSYLNWYQQKPGKAPKLLIYAASSLQSGVPSRFSGSGSGTDFTLTISSLQPEDFATYYCQQVLHTITFGGGTKVEIKRTVAAPSVFIFPPSDEQLKSGTASVVCLLNNFYPREAKVQWKVDNALQSGNSQESVTEQDSKDSTYSLSSTLTLSKADYEKHKVYACEVTHQGLSSPVTKSFNRGEC
notes: also called 42Y073-88F08-16
B3: 42Y073-86F08-1 (antibody, V domains shown)
VH: QVQLVQSGAEVKKPGSSVKVSCKASGGTFSSYAISWVRQAPGQGLEWMGGIIPIFGTASYAQKFQGRVTITADESTSTAYMELSSLRSEDTAVYYCARGAGYYGDKDPMDVWGQGTTVTVSS
VL: DIQLTQSPSSLSASVGDRVTITCRASQSISSYLNWYQQKPGKAPKLLIYAASSLQSGVPSRFSGSGSGTDFTLTISSLQPEDFATYYCQQVLHTITFGGGTKVEIK
B4: 42Y073-86F08-8 (antibody, V domains shown)
VH: B3 VH with S30W, S31L, I54Q, F55L, S59N
VL: B3 VL
notes: Fully human antibody; also called 42Y073-88F08-8
B5: 42Y073-86F08-17 (antibody, V domains shown)
VH: B3 VH with S30R, S31E, I54V, S59N
VL: B3 VL
notes: Fully human antibody; also called 42Y073-88F08-17
B6: 42Y073-86F08-47 (antibody, V domains shown)
VH: B3 VH with S31Q, S35H, G50V, T57K, S59N
VL: B3 VL
notes: Fully human antibody
B7: 42Y073-86F08-4 (antibody, V domains shown)
VH: B3 VH with S31E, S35H, G50N, S59G
VL: B3 VL
notes: Fully human antibody
B8: 42Y073-86F08-3 (antibody, V domains shown)
VH: B3 VH with S30V, S31N, I54A, F55L, S59N
VL: B3 VL
notes: Fully human antibody
B9: 42Y073-86F08-22 (antibody, V domains shown)
VH: B3 VH with S16A, G27Y, S30D, I34M, S35H, S59W
VL: B3 VL
notes: Fully human antibody
B10: 42Y073-1A01-103 (antibody, V domains shown)
VH: QVQLVQSGAEVKKPGASVKVSCKASGYTFTAYQMHWVRQAPGQGLEWMGIINPAGGWTSYAQKFQGRVTMTRDTSTSTVYMELSSLRSEDTAVYYCARETAYYTTKGNWFDPWGQGTLVTVSS
VL: DIQMTQSPSSLSASVGDRVTITCRASQSISSYLNWYQQKPGKAPKLLIYAASSLQSGVPSRFSGSGSGTDFTLTISSLQPEDFATYYCQQSLYPPRTFGGGTKVEIK
notes: Fully human antibody
B11: 42Y073-86F04-88 (antibody, V domains shown)
VH: QVQLVQSGAEVKKPGSSVKVSCKASGGTFSSSAISWVRQAPGQGLEWMGGIIPIFGRANYAQKFQGRVTITADESTSTAYMELSSLRSEDTAVYYCARLLGESGMDVWGQGTTVTVSS
VL: B10 VL with S91P, L92Y, Y93F, P94S, R96P
notes: Fully human antibody
B12: 42Y073-86F04-6 (antibody, V domains shown)
VH: B11 VH with S31G, S32H, N59R
VL: B10 VL with S91P, L92Y, Y93F, P94S, R96P
notes: Fully human antibody
B13: 42Y073-1A01-85 (antibody, V domains shown)
VH: B10 VH with A31S, Q33P, A54S, W57F, S123A
VL: B10 VL
notes: Fully human antibody
B14: 42Y073-1A01-126 (antibody, V domains shown)
VH: B10 VH with A31R, Q33N, I50W, W57S, S123A
VL: B10 VL
notes: Fully human antibody
B15: 42Y073-1A01-100 (antibody, V domains shown)
VH: B10 VH with A31T, Q33R, A54S, W57L, S59Q
VL: B10 VL
notes: Fully human antibody
B16: 42Y073-86F04-4 (antibody, V domains shown)
VH: B11 VH with S30E, S32E, N59R
VL: B10 VL with S91P, L92Y, Y93F, P94S, R96P
notes: Fully human antibody
B17: 42Y073-86F04-18 (antibody, V domains shown)
VH: B11 VH with S32R, F55M, R57T, N59R
VL: B10 VL with S91P, L92Y, Y93F, P94S, R96P
notes: Fully human antibody
B18: 42Y073-1A01-97 (antibody, V domains shown)
VH: B10 VH with A31R, Y32A, Q33A, W57Y
VL: B10 VL
notes: Fully human antibody
B19: 42Y073-1A01-191 (antibody, V domains shown)
VH: B10 VH with A31K, Q33R, A54Q, W57S, S123A
VL: B10 VL
notes: Fully human antibody
B20: 42Y073-86F04-33 (antibody, V domains shown)
VH: B11 VH with S32Y, I52L
VL: B10 VL with S91P, L92Y, Y93F, P94S, R96P
notes: Fully human antibody
B21: 42Y073-86F04-5 (antibody, V domains shown)
VH: B11 VH with S32H, A58G, N59K
VL: B10 VL with S91P, L92Y, Y93F, P94S, R96P
notes: Fully human antibody
B22: 42Y073-86F04-3 (antibody, V domains shown)
VH: B11 VH with S31Y, S32N, F55M, R57T, N59R
VL: B10 VL with S91P, L92Y, Y93F, P94S, R96P
notes: Fully human antibody

molecular target: T1, human CD96v2 expressed on cells (CHO …); assay: flow cytometry on CHO cells expressing human CD96v2

Row | EC50 | Binder
1 | 1060 pM | B1
2 | 30 pM | B2
3 | 70 pM | B3
4 | 170 pM | B4
5 | 100 pM | B5
6 | 50 pM | B6
7 | 40 pM | B7
8 | 40 pM | B8
9 | 30 pM | B9
10 | 20 pM | B10
11 | 50 pM | B11
12 | 60 pM | B12
13 | 470 pM | B13
14 | 20 pM | B14
15 | 20 pM | B15
16 | 40 pM | B16
17 | 70 pM | B17
18 | 770 pM | B18
19 | 10 pM | B19
20 | 40 pM | B20
21 | 50 pM | B21
22 | 40 pM | B22

molecular target: T2, cynomolgus monkey CD96v2 expressed on …; assay: flow cytometry on CHO cells expressing cynomolgus CD96v2

Row | EC50 | Binder
23 | 40 pM | B1
24 | 40 pM | B2
25 | 30 pM | B4
26 | 30 pM | B5
27 | 60 pM | B6
28 | 70 pM | B7
29 | 90 pM | B9
30 | 30 pM | B10
31 | 160 pM | B11
32 | 110 pM | B12
33 | 10 pM | B13
34 | 30 pM | B14
35 | 40 pM | B15
36 | 70 pM | B16
37 | 110 pM | B17
38 | 20 pM | B18
39 | 20 pM | B19
40 | 50 pM | B20
41 | 70 pM | B21
42 | 40 pM | B22

molecular target: T1, human CD96v2 expressed on cells (CHO …); assay: flow cytometry, inhibition of human CD155-Fc-AF647 binding to CHO cells expressing human CD96v2; competitor CD155-Fc

Row | IC50 | Binder
43 | 400 pM | B1
44 | 780 pM | B2
45 | 330 pM | B3
46 | 930 pM | B4
47 | 520 pM | B5
48 | 170 pM | B6
49 | 380 pM | B7
50 | 280 pM | B8
51 | 410 pM | B9
52 | 30 pM | B10
53 | 210 pM | B11
54 | 250 pM | B12
55 | 30 pM | B13
56 | 100 pM | B14
57 | 60 pM | B15
58 | 180 pM | B16
59 | 590 pM | B17
60 | 30 pM | B18
61 | 30 pM | B19
62 | 710 pM | B20
63 | 380 pM | B21
64 | 310 pM | B22
